Laboratory results taken from publication PMC4771738.

Legend:
GFP-dynactin 6 = GFP-dynactin 6 (UniProt O00399); assay: co-IP; HEK 293 cells co-transfected with myc-tagged Rab and GFP fusion; lysis in 50 mM Tris pH 7.4, 150 mM NaCl, 1% Triton X-100; GFP fusions precipitated on GBP agarose beads, room temperature 1.5 h; blot for myc and GFP; co-IP efficiency = co-IP / input
GFP-syntaxin 8 = GFP-syntaxin 8 (UniProt Q9UNK0); assay: as above
UniProt Q9UNK0, sequence (Q9UNK0 whole entry): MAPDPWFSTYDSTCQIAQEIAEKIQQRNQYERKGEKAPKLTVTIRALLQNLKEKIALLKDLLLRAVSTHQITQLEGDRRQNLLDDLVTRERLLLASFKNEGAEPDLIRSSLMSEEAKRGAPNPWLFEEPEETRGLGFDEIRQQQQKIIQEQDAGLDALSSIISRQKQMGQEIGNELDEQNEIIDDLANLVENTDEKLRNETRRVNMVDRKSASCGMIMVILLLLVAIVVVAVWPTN

UniProt O00399, sequence (O00399 whole entry, the tested form may be a part): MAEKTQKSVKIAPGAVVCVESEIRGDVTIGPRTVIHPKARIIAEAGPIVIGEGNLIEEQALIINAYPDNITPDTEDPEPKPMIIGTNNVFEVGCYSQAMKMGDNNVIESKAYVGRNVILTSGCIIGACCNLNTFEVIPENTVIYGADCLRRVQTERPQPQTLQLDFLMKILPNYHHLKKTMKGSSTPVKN

| co-IP efficiency (co-IP divided by input) (GFP-dynactin 6) [%] | co-IP efficiency (co-IP divided by input) (GFP-syntaxin 8) [%] | Substance |
| --- | --- | --- |
| 2 | 1.9 | myc-tagged GDP-locked Rab41/6d (from UniProt Q5JT25 1-222) (natural protein) |
| 2.7 | 3.3 | myc-tagged GTP-locked Rab41/6d (from UniProt Q5JT25 1-222) (natural protein) |
